Experimental findings from patent publication US20250109209A1 (ABSCI, published 2025) are described below.

As usually defined, the Kd is the free concentration of one partner at which half of the binding sites on the other are occupied at equilibrium, for simple one-to-one binding. A high value points to weaker binding.

Bounds are passed on as bounds.

In experiment [1] the target is T1, human TL1A (human, UniProt O95150 72-251).
T1 construct: Antigen in SPR and ELISA; Also used here for places that print only 'TL1A' and for endogenous TL1A in human whole blood; also called TNFSF15
T1 sequence (looked up): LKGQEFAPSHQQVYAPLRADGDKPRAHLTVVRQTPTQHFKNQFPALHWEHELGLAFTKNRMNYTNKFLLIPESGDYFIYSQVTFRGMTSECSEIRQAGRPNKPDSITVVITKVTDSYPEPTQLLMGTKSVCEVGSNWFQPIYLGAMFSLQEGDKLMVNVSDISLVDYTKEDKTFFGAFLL
The experiment is described as follows: SPR, mAb format, average. Background: Surface plasmon resonance follows binding to a sensor surface in real time, without labels.

The target of experiment [2] is T1, human TL1A. The experiment is described as follows: SPR, mAb format, average. The source holds these as a separate data set.
Experiment [3] deals with T2, Cyno TL1A (cyno, UniProt G7PRK8 72-251).
T2 sequence: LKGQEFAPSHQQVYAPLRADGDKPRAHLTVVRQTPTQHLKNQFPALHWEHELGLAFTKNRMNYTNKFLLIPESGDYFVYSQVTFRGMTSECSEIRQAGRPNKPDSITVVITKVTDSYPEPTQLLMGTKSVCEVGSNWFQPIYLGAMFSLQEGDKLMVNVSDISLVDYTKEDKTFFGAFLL
Kind of experiment: SPR, mAb format, average.

The target of experiment [4] is T3, mouse TL1A (mouse, UniProt Q5UBV8 76-252, limits assumed).
T3 sequence (looked up): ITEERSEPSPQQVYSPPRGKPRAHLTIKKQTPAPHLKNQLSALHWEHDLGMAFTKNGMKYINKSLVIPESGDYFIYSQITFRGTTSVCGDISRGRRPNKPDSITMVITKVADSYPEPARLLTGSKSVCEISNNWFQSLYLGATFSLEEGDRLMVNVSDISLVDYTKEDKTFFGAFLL
Kind of experiment: SPR, mAb format, average.

Experiment [5] deals with T1, human TL1A. Kind of experiment: SPR, mAb format, average. The source holds these as a separate data set.
Experiment [6] deals with T4, FcRn (UniProt P55899 24-297; P61769 21-119).
T4 construct: also called neonatal receptor
The experiment is described as follows: SPR, mAb format, FcRn at pH 6.0, average.

In experiment [7] the target is T1, human TL1A. Kind of experiment: SPR, Fab format.
Experiment [8] addresses T1, human TL1A. The experiment is described as follows: SPR, Fab format, average.
In experiment [9] the target is T2, Cyno TL1A. Kind of experiment: SPR, Fab format, average.
In experiment [10] the target is T1, human TL1A. The experiment is described as follows: SPR, Fab lysate, average.

T4 sequence (P55899 24-297 limits assumed, chain 1 of 2): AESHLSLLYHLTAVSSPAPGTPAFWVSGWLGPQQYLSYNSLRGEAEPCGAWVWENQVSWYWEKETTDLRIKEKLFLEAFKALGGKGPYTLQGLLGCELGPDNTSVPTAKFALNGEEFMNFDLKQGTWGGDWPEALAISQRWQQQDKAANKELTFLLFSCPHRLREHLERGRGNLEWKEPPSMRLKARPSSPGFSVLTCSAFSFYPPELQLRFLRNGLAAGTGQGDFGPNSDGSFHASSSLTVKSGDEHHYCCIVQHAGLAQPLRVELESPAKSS
T4 sequence (P61769 21-119 limits assumed, chain 2 of 2): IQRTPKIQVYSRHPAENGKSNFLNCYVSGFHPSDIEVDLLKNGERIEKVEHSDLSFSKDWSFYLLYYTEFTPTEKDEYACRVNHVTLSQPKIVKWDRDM

B1: Antibody 16 (mAb format) (antibody, human IgG1, kappa, N297A)
heavy: QVQLQESGPGLVRPSQTLSLTCTVSGFDMQSTYMHWVRQRPGRGLEWMGRIEPAGGHTKYNPSLKSRVTITRDTSKNQVSLRLSSVTAADTAVYYCVRSGGLPDVWGQGSLVTVSSASTKGPSVFPLAPSSKSTSGGTAALGCLVKDYFPEPVTVSWNSGALTSGVHTFPAVLQSSGLYSLSSVVTVPSSSLGTQTYICNVNHKPSNTKVDKKVEPKSCDKTHTCPPCPAPELLGGPSVFLFPPKPKDTLMISRTPEVTCVVVDVSHEDPEVKFNWYVDGVEVHNAKTKPREEQYASTYRVVSVLTVLHQDWLNGKEYKCKVSNKALPAPIEKTISKAKGQPREPQVYTLPPSRDELTKNQVSLTCLVKGFYPSDIAVEWESNGQPENNYKTTPPVLDSDGSFFLYSKLTVDKSRWQQGNVFSCSVLHEALHSHYTQKSLSLSPGK
light: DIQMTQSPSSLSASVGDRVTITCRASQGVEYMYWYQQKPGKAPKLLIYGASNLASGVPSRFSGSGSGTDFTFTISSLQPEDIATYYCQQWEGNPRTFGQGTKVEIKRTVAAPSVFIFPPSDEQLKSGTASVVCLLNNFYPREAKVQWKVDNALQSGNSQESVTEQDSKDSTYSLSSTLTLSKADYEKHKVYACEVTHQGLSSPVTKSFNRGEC
notes: also called high priority lead mAb
In the case of B1, the Kd is 0.339 nM in [1]; 0.339 nM in [2]; 0.09 nM in experiment [3]; 955 nM in [4]; 0.339 nM in experiment [5]; 17.7 nM in experiment [6].

B2: Antibody 1 (mAb format) (antibody, human IgG1, kappa, N297A)
heavy: QVQLQESGPGLVRPSQTLSLTCTVSGFDIQDTYMHWVRQRPGRGLEWMGRIEPAGGHTKYNPSLKSRVTITRDTSKNQVSLRLSSVTAADTAVYYCASSGGMPDLWGQGSLVTVSSASTKGPSVFPLAPSSKSTSGGTAALGCLVKDYFPEPVTVSWNSGALTSGVHTFPAVLQSSGLYSLSSVVTVPSSSLGTQTYICNVNHKPSNTKVDKKVEPKSCDKTHTCPPCPAPELLGGPSVFLFPPKPKDTLMISRTPEVTCVVVDVSHEDPEVKFNWYVDGVEVHNAKTKPREEQYASTYRVVSVLTVLHQDWLNGKEYKCKVSNKALPAPIEKTISKAKGQPREPQVYTLPPSRDELTKNQVSLTCLVKGFYPSDIAVEWESNGQPENNYKTTPPVLDSDGSFFLYSKLTVDKSRWQQGNVFSCSVLHEALHSHYTQKSLSLSPGK
light: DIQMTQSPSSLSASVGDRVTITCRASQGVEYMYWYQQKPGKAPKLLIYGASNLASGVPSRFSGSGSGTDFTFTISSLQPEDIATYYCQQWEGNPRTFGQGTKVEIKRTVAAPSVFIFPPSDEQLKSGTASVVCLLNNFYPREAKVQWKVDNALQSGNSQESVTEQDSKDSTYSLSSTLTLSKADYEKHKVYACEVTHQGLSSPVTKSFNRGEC
notes: also called Lead #1; high priority lead mAb
Turning to B2, the Kd in experiment [1] is 0.151 nM; in experiment [2], 0.151 nM; in [3], 0.139 nM; in experiment [4], 74500 nM; in experiment [5], 0.151 nM; in [6] it was 17.5 nM.

B3: Antibody 12 (Fab format) (Fab, V domains shown)
VH: QVQLQESGPGLVRPSQTLSLTCTVSGFDITDTYMHWVRQRPGRGLEWMGRIEPAGGHTKYNPSLKSRVTITRDTSKNQVSLRLSSVTAADTAVYYCVRSGGLPDVWGQGSLVTVSS
VL: DIQMTQSPSSLSASVGDRVTITCRASQGVEYMYWYQQKPGKAPKLLIYSASNLASGVPSRFSGSGSGTDFTFTISSLQPEDIATYYCQQWEGNPRTFGQGTKVEIK
notes: High priority lead, Fab format
As for B3, the Kd was less than 1 nM in experiment [7], 0.43 nM in experiment [8], 1.29 nM in [9] and 0.43 nM in [10].

B4: Antibody 17 (Fab format) (Fab, V domains shown)
VH: QVQLQESGPGLVRPSQTLSLTCTVSGFDMGDTYMHWVRQRPGRGLEWMGRIEPAAGHTKYNPSLKSRVTITRDTSKNQVSLRLSSVTAADTAVYYCVRSGGLPDVWGQGSLVTVSS
VL: DIQMTQSPSSLSASVGDRVTITCRASQGVEYMYWYQQKPGKAPKLLIYGASNLASGVPSRFSGSGSGTDFTFTISSLQPEDIATYYCQQWEGNPRTFGQGTKVEIK
notes: as for B3
For B4, the Kd in [7] is less than 1 nM; in experiment [8] it was 0.57 nM; in experiment [9], 0.33 nM; in experiment [10], 0.57 nM.

B5: Antibody 13 (Fab format) (Fab, V domains shown)
VH: QVQLQESGPGLVRPSQTLSLTCTVSGFDYQDTYMHWVRQRPGRGLEWMGRIDPASGHTKYNPSLKSRVTITRDTSKNQVSLRLSSVTAADTAVYYCAVSGGMPDVWGQGSLVTVSS
VL: DIQMTQSPSSLSASVGDRVTITCRASQGVEYMYWYQQKPGKAPKLLIYATSNLASGVPSRFSGSGSGTDFTFTISSLQPEDIATYYCQQWEGNPRTFGQGTKVEIK
notes: as for B3
Consider B5, for which the Kd in [7] was less than 1 nM; in experiment [8] it was 0.43 nM; in experiment [9], 0.34 nM; in experiment [10] it was 0.43 nM.

B6: Antibody 20 (Fab format) (Fab, V domains shown)
VH: QVQLQESGPGLVRPSQTLSLTCTVSGFDIQDTYMHWVRQRPGRGLEWMGRIEPASGHTKYNPSLKSRVTITRDTSKNQVSLRLSSVTAADTAVYYCARSGGMPDMWGQGSLVTVSS
VL: DIQMTQSPSSLSASVGDRVTITCRASQGVMYMYWYQQKPGKAPKLLIYGASNLASGVPSRFSGSGSGTDFTFTISSLQPEDIATYYCQQWEGNPRTFGQGTKVEIK
notes: as for B3
For B6, the dissociation constant (Kd) is less than 1 nM in experiment [7], 0.76 nM in experiment [8], 1.28 nM in [9] and 0.76 nM in experiment [10].

B7: Antibody 18 (Fab format) (Fab, V domains shown)
VH: QVQLQESGPGLVRPSQTLSLTCTVSGFDMGDTYMHWVRQRPGRGLEWMGRIEPAGGHTKYNPSLKSRVTITRDTSKNQVSLRLSSVTAADTAVYYCVRSGGMPDVWGQGSLVTVSS
VL: DIQMTQSPSSLSASVGDRVTITCRASSSVSYMYWYQQKPGKAPKLLIYYASNLASGVPSRFSGSGSGTDFTFTISSLQPEDIATYYCQQWEGNPRTFGQGTKVEIK
notes: as for B3
As to B7, the Kd was less than 1 nM in experiment [7], 0.67 nM in experiment [8], 1.28 nM in experiment [9] and 0.67 nM in experiment [10].

B8: Antibody 15 (Fab format) (Fab, V domains shown)
VH: QVQLQESGPGLVRPSQTLSLTCTVSGFDIQDTYMHWVRQRPGRGLEWMGRIEPAGGHTKYNPSLKSRVTITRDTSKNQVSLRLSSVTAADTAVYYCVRSGGLPDAWGQGSLVTVSS
VL: DIQMTQSPSSLSASVGDRVTITCRASQGIYYMYWYQQKPGKAPKLLIYGASNLASGVPSRFSGSGSGTDFTFTISSLQPEDIATYYCQQWEGNPRTFGQGTKVEIK
notes: as for B3
For B8, the Kd in [7] is less than 1 nM; in experiment [8] it was 0.5 nM; in experiment [9] it was 1.81 nM; in [10], 0.5 nM.

B9: Antibody 14 (Fab format) (Fab, V domains shown)
VH: QVQLQESGPGLVRPSQTLSLTCTVSGLDPDDTYMHWVRQRPGRGLEWMGRIEPAGGHTKYNPSLKSRVTITRDTSKNQVSLRLSSVTAADTAVYYCVISGGLPDVWGQGSLVTVSS
VL: DIQMTQSPSSLSASVGDRVTITCRASQGIYYMYWYQQKPGKAPKLLIYGASNLASGVPSRFSGSGSGTDFTFTISSLQPEDIATYYCQQWEGNPRTFGQGTKVEIK
notes: as for B3
Consider B9, for which the Kd in experiment [7] was less than 1 nM; in [8], 0.7 nM; in experiment [9], 4.25 nM; in [10], 0.7 nM.

B10: Antibody 16 (Fab format) (Fab, V domains shown)
VH: QVQLQESGPGLVRPSQTLSLTCTVSGFDMQSTYMHWVRQRPGRGLEWMGRIEPAGGHTKYNPSLKSRVTITRDTSKNQVSLRLSSVTAADTAVYYCVRSGGLPDVWGQGSLVTVSS
VL: DIQMTQSPSSLSASVGDRVTITCRASQGVEYMYWYQQKPGKAPKLLIYGASNLASGVPSRFSGSGSGTDFTFTISSLQPEDIATYYCQQWEGNPRTFGQGTKVEIK
notes: as for B3
As to B10, the Kd in [7] is less than 1 nM; in experiment [8] it was 0.51 nM; in [9] it was 0.32 nM; in [10], 0.51 nM.

B11: Antibody 19 (Fab format) (Fab, V domains shown)
VH: QVQLQESGPGLVRPSQTLSLTCTVSGFDITDTYMHWVRQRPGRGLEWMGRIEPAGGHTKYNPSLKSRVTITRDTSKNQVSLRLSSVTAADTAVYYCVRSGGLPDVWGQGSLVTVSS
VL: DIQMTQSPSSLSASVGDRVTITCRASQGVEYMYWYQQKPGKAPKLLIYYASNLASGVPSRFSGSGSGTDFTFTISSLQPEDIATYYCQQWEGNPRTFGQGTKVEIK
notes: as for B3
In the case of B11, the dissociation constant Kd in experiment [7] was less than 1 nM; in experiment [8] it was 0.72 nM; in [9] it was 5.14 nM; in experiment [10], 0.72 nM.
